Laboratory results published in patent US20230357348A1 (AstraZeneca / MedImmune, published 2023).
Read-outs that look alike come from different tables or passages of the source. Starred links: 1 amine or outer side, 2 acyl side, 3 side chain; linkers in the order of their positions; H or OH if unused. Non-standard residues stand in square brackets, D forms with d. Groups on a side chain read outwards from the residue. Primed or numbered codes have the meaning given here. No end group written: not given here. *: point of attachment. C20 diacid = O=C(O)CCCCCCCCCCCCCCCCCCC(=O)*; C18 diacid = O=C(O)CCCCCCCCCCCCCCCCC(=O)*; γGlu = O=C(O)[C@H](CCC(=O)[*:2])N[*:1]; Stearoyl = CCCCCCCCCCCCCCCCCC(=O)*; Palmitoyl = CCCCCCCCCCCCCCCC(=O)*; αMeF = C[C@](N)(Cc1ccccc1)C(=O)O; (PEG)2 = polyethylene glycol 2; PEG2′ = polyethylene glycol 2; AEEA = NCCOCCOCC(=O)O; Aib = CC(C)(N)C(=O)O

Assays:
Assay in all cases: cell-based or functional assay
[1] = target: T1, human GLP-1 receptor (hGLP-1R) (human, UniProt P43220 24-463)
[2] = target: T2, human glucagon receptor (hGCGR) (human, UniProt P47871 26-477)
T2 sequence (P47871 26-477): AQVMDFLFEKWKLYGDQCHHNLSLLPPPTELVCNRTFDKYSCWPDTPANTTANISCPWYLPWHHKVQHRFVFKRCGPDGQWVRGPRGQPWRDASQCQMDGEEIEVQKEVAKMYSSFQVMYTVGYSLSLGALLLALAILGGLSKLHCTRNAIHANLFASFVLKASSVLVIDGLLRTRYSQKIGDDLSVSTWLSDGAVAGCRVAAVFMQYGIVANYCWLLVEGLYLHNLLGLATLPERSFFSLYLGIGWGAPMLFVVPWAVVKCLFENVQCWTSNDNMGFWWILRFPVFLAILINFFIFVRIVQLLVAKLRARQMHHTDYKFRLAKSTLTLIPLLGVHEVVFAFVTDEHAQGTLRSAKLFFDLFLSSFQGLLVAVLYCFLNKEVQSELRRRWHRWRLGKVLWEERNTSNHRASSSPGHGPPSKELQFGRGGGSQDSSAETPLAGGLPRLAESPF

[3] = target: T1, human GLP-1 receptor (hGLP-1R); remark: listed apart in the source
[4] = target: T2, human glucagon receptor (hGCGR); remark: listed apart in the source
[5] = target: T1, human GLP-1 receptor (hGLP-1R); remark: listed apart in the source
[6] = target: T2, human glucagon receptor (hGCGR); remark: listed apart in the source

hGLP-1R EC50 (pM); cAMP production [5] [pM] | hGluc-R EC50 (pM); cAMP production [6] [pM] | Binder | further results
– | – | HSQGS[αMeF]TSDVSKK([AEEA-AEEA-γGlu-γGlu-Stearoyl])LDSQAAQD[αMeF]VE[Aib]LANT-NH2 [Peptide 404 (of Table 10, position 13)] | hGLP-1R EC50 (pM); cAMP production [1]: 5.65 pM; hGluc-R EC50 (pM); cAMP production [2]: 21.8 pM
– | – | H[Aib]QGS[αMeF]TSDK([PEG2′-PEG2′-γGlu-Palmitoyl])SKILDSRAAQD[αMeF]VEWIANT-NH2 [Peptide 396 (of Table 9, position 10)] | hGLP-1R EC50 (pM); cAMP production [3]: 0.583 pM; hGluc-R EC50 (pM); cAMP production [4]: 11.8 pM
108 | 5640 | H[Aib]IGS[αMeF]TSDVSK[αMeF]LDSRAAQDFVK([AEEA-AEEA-γGlu-C20 diacid])WIANT-NH2 (N-terminus assumed; SMILES CC[C@H](C)[C@H](NC(=O)[C@H](Cc1c[nH]c2ccccc12)NC(=O)[C@H](CCCCNC(=O)COCCOCCNC(=O)COCCOCCNC(=O)CC[C@H](NC(=O)CCCCCCCCCCCCCCCCCCC(=O)O)C(=O)O)NC(=O)[C@@H](NC(=O)[C@H](Cc1ccccc1)NC(=O)[C@H](CC(=O)O)NC(=O)[C@H](CCC(N)=O)NC(=O)[C@H](C)NC(=O)[C@H](C)NC(=O)[C@H](CCCNC(=N)N)NC(=O)[C@H](CO)NC(=O)[C@H](CC(=O)O)NC(=O)[C@H](CC(C)C)NC(=O)[C@](C)(Cc1ccccc1)NC(=O)[C@H](CCCCN)NC(=O)[C@H](CO)NC(=O)[C@@H](NC(=O)[C@H](CC(=O)O)NC(=O)[C@H](CO)NC(=O)[C@@H](NC(=O)[C@](C)(Cc1ccccc1)NC(=O)[C@H](CO)NC(=O)CNC(=O)[C@@H](NC(=O)C(C)(C)NC(=O)[C@@H](N)Cc1c[nH]cn1)[C@@H](C)CC)[C@@H](C)O)C(C)C)C(C)C)C(=O)N[C@@H](C)C(=O)N[C@@H](CC(N)=O)C(=O)N[C@H](C(N)=O)[C@@H](C)O) [Peptide 360] | –
– | – | H[Aib]QGS[αMeF]TSDVSKK([(PEG)2-(PEG)2-γGlu-Palmitoyl])LDSRAAQD[αMeF]VEWIANT-NH2 [Peptide 402 (of Table 10, position 13)] | hGLP-1R EC50 (pM); cAMP production [1]: 1.04 pM; hGluc-R EC50 (pM); cAMP production [2]: 18.1 pM
186 | 290 | H[Aib]HGS[αMeF]TSDVSK[αMeF]LDSR[Aib]AQDFVK([AEEA-AEEA-γGlu-C20 diacid])WIANT-NH2 (N-terminus assumed; SMILES CC[C@H](C)[C@H](NC(=O)[C@H](Cc1c[nH]c2ccccc12)NC(=O)[C@H](CCCCNC(=O)COCCOCCNC(=O)COCCOCCNC(=O)CC[C@H](NC(=O)CCCCCCCCCCCCCCCCCCC(=O)O)C(=O)O)NC(=O)[C@@H](NC(=O)[C@H](Cc1ccccc1)NC(=O)[C@H](CC(=O)O)NC(=O)[C@H](CCC(N)=O)NC(=O)[C@H](C)NC(=O)C(C)(C)NC(=O)[C@H](CCCNC(=N)N)NC(=O)[C@H](CO)NC(=O)[C@H](CC(=O)O)NC(=O)[C@H](CC(C)C)NC(=O)[C@](C)(Cc1ccccc1)NC(=O)[C@H](CCCCN)NC(=O)[C@H](CO)NC(=O)[C@@H](NC(=O)[C@H](CC(=O)O)NC(=O)[C@H](CO)NC(=O)[C@@H](NC(=O)[C@](C)(Cc1ccccc1)NC(=O)[C@H](CO)NC(=O)CNC(=O)[C@H](Cc1c[nH]cn1)NC(=O)C(C)(C)NC(=O)[C@@H](N)Cc1c[nH]cn1)[C@@H](C)O)C(C)C)C(C)C)C(=O)N[C@@H](C)C(=O)N[C@@H](CC(N)=O)C(=O)N[C@H](C(N)=O)[C@@H](C)O) [Peptide 368] | –
139 | 72.4 | H[Aib]HGS[αMeF]TSDVSK[αMeF]LDSRAAQDFVK([AEEA-AEEA-γGlu-C20 diacid])WIANT-NH2 (not fully specified) [Peptide 367] | –
35.7 | 23.6 | H[Aib]IGS[αMeF]TSDVSK[αMeF]LDSRAAQDFVK([AEEA-AEEA-γGlu-C18 diacid])WIANT-NH2 (N-terminus assumed; SMILES CC[C@H](C)[C@H](NC(=O)[C@H](Cc1c[nH]c2ccccc12)NC(=O)[C@H](CCCCNC(=O)COCCOCCNC(=O)COCCOCCNC(=O)CC[C@H](NC(=O)CCCCCCCCCCCCCCCCC(=O)O)C(=O)O)NC(=O)[C@@H](NC(=O)[C@H](Cc1ccccc1)NC(=O)[C@H](CC(=O)O)NC(=O)[C@H](CCC(N)=O)NC(=O)[C@H](C)NC(=O)[C@H](C)NC(=O)[C@H](CCCNC(=N)N)NC(=O)[C@H](CO)NC(=O)[C@H](CC(=O)O)NC(=O)[C@H](CC(C)C)NC(=O)[C@](C)(Cc1ccccc1)NC(=O)[C@H](CCCCN)NC(=O)[C@H](CO)NC(=O)[C@@H](NC(=O)[C@H](CC(=O)O)NC(=O)[C@H](CO)NC(=O)[C@@H](NC(=O)[C@](C)(Cc1ccccc1)NC(=O)[C@H](CO)NC(=O)CNC(=O)[C@@H](NC(=O)C(C)(C)NC(=O)[C@@H](N)Cc1c[nH]cn1)[C@@H](C)CC)[C@@H](C)O)C(C)C)C(C)C)C(=O)N[C@@H](C)C(=O)N[C@@H](CC(N)=O)C(=O)N[C@H](C(N)=O)[C@@H](C)O) [Peptide 361] | –
– | – | H[Aib]HGS[αMeF]TSDK([AEEA-AEEA-γGlu-C18 diacid])SK[αMeF]LDSRAAQD[αMeF]VQ[Aib]IANT-NH2 (N-terminus assumed; SMILES CC[C@H](C)[C@H](NC(=O)C(C)(C)NC(=O)[C@H](CCC(N)=O)NC(=O)[C@@H](NC(=O)[C@](C)(Cc1ccccc1)NC(=O)[C@H](CC(=O)O)NC(=O)[C@H](CCC(N)=O)NC(=O)[C@H](C)NC(=O)[C@H](C)NC(=O)[C@H](CCCNC(=N)N)NC(=O)[C@H](CO)NC(=O)[C@H](CC(=O)O)NC(=O)[C@H](CC(C)C)NC(=O)[C@](C)(Cc1ccccc1)NC(=O)[C@H](CCCCN)NC(=O)[C@H](CO)NC(=O)[C@H](CCCCNC(=O)COCCOCCNC(=O)COCCOCCNC(=O)CC[C@H](NC(=O)CCCCCCCCCCCCCCCCC(=O)O)C(=O)O)NC(=O)[C@H](CC(=O)O)NC(=O)[C@H](CO)NC(=O)[C@@H](NC(=O)[C@](C)(Cc1ccccc1)NC(=O)[C@H](CO)NC(=O)CNC(=O)[C@H](Cc1c[nH]cn1)NC(=O)C(C)(C)NC(=O)[C@@H](N)Cc1c[nH]cn1)[C@@H](C)O)C(C)C)C(=O)N[C@@H](C)C(=O)N[C@@H](CC(N)=O)C(=O)N[C@H](C(N)=O)[C@@H](C)O) [Peptide 392 (of Table 9, position 10)] | hGLP-1R EC50 (pM); cAMP production [3]: 312 pM; hGluc-R EC50 (pM); cAMP production [4]: 6920 pM
